Measurements: patent publication US20060024722A1

Target: oncofetal fibronectin (human) (UniProt P02751)
Test: lateral flow sandwich assay (FDC-6 latex conjugate / immobilised goat anti-fibronectin), TLiIQ reflectance reader

Sequence of UniProt P02751 (P02751 32-2477): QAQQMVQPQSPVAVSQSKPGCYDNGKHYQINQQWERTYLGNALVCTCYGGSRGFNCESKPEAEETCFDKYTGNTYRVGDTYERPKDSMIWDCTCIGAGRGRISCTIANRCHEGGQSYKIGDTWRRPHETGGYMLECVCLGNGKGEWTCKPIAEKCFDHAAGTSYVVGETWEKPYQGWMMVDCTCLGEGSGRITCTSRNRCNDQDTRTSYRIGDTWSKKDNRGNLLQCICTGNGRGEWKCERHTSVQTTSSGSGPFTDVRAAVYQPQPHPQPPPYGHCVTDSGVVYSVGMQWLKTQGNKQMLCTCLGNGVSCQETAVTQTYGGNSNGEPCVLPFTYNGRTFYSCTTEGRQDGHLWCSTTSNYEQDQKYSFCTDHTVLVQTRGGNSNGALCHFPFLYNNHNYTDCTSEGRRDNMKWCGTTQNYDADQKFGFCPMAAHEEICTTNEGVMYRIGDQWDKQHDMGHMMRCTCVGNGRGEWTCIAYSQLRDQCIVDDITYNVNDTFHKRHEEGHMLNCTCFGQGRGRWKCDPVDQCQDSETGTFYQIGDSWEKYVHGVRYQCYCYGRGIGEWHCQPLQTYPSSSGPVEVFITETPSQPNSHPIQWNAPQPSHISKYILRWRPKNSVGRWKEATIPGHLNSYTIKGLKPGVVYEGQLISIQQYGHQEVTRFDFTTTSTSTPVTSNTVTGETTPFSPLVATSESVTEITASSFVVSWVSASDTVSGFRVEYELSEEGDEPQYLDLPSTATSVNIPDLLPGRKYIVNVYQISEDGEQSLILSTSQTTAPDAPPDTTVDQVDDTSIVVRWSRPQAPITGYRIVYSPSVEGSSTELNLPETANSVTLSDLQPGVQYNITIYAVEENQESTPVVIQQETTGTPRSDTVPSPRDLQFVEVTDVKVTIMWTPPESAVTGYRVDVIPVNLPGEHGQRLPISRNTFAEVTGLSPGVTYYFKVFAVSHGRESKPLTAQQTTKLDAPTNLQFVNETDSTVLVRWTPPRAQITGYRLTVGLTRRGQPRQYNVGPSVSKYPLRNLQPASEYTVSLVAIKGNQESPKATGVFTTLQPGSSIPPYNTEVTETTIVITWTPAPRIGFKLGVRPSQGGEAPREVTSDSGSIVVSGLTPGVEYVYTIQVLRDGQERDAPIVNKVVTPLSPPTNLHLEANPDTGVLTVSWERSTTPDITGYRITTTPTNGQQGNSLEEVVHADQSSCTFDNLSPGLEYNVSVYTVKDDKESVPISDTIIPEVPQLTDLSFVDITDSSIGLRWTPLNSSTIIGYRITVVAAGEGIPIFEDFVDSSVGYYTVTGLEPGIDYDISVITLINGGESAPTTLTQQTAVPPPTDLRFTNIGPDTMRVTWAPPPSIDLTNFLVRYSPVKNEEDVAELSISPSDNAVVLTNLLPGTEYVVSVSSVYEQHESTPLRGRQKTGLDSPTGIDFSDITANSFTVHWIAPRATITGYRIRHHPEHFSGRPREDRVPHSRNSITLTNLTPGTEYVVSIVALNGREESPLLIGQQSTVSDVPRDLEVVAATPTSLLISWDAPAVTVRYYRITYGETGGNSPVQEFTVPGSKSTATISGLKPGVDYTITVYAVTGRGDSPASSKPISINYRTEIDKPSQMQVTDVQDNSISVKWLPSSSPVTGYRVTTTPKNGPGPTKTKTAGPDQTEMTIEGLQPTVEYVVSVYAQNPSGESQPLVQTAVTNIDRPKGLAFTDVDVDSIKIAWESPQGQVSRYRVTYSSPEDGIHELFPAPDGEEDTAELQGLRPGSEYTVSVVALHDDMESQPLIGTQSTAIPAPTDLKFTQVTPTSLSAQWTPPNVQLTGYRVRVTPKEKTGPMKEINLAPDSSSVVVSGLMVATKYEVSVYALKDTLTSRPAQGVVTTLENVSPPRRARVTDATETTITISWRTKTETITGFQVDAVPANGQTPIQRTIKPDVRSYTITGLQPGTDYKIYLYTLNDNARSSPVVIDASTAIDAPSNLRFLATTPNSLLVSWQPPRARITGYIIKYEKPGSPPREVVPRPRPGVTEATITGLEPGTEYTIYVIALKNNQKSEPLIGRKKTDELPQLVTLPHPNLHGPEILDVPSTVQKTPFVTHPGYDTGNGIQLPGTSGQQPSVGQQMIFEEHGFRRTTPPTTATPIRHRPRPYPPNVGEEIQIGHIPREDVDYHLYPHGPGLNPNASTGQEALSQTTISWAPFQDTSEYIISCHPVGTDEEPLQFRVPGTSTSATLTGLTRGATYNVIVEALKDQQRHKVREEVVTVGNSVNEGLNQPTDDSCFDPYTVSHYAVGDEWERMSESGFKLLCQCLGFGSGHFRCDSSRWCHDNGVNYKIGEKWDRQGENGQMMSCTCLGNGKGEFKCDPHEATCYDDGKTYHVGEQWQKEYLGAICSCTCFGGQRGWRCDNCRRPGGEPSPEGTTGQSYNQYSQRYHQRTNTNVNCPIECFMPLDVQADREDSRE

reflectance signal at 50 ng/ml oncofetal fibronectin (reflectance signal): 0.315
Substance: monoclonal antibody FDC-6 produced by hybridoma ATCC HB 9018
